Data from the nanobody polyreactivity screen of Harvey et al. (2022).

Experiment: yeast display, Sf9 membrane polyspecificity reagent, FACS + sequencing; frameworks hold sequencing errors
Procedure, shortened: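 Nanobodies from a synthetic yeast display library (Saccharomyces cerevisiae BJ5465), induced 36–48 hours with galactose, were stained 1 hour at 4 °C with 10% biotinylated, detergent-solubilized Sf9 membrane reagent, enriched on streptavidin microbeads, then FACS-sorted. Anti-HA (expression) and streptavidin (reagent binding) fluorescence set low and high (top ~1%) gates. Polyreactivity labels come from the gate of origin. Genes were colony-PCR amplified, MiSeq 2 × 250 sequenced and filtered by CDR length.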

Sequence | polyreactivity (PSR sort gate)
QVQLVESGGGLVQAGGSLRLSCAASGSIFTRYAMGWYRQAPGKDRELDADIRWGGGDTYYADSVKGRFTNSRDNAKNTVYLQMNSLTPEDTAVYYCNADHTFIKYYPDWGDYGRDYDYWGQGTQVTVSS | low polyreactivity
QVPLVESGGGLVQAGGSLRLSCAASGSTLAGYTMGWYRQAPGKERELVAAITWSGSSTYYADSVKGRFTISRDNAKNTVYLQMNSLKPEDTAVYYCAATYYVYSGGNYLRYDSWGQGTQVTVSS | high polyreactivity
QVQLVESCGALVQAGGSLRLICAGSGSIFHVNAMGWSRPAHGKESELVAGISDGGSTYYADSVKGRFTISRYYAKNTVYFQMNSLKPEDSGVYYWATDYPSRWHVHRGFQGKYDYWGQGTQVTLSS | low polyreactivity
QVQLVESGGGLVQAGGSLRLSCAASGFIIDRYAMGWYRQAPGKERELVARISWSGGSTYYADSVKGRFTISRDNAKNTVYLQMNSLKPEDTAVYYCNKAAWWLQSRYDYWGQGTQVTVSS | high polyreactivity
QVQLVESGGGLVQAGGSLRLSCDASGSIFYDYAMGWYRQAPGKERELVAAITSDTTTNYADSVKGRFTISRDNAKNTVYLQMNSLKPEDTAVYYCNTPPQWLGRYITLTFDYWGQGTQVTVSS | low polyreactivity
QVQLVESGGGLVQAGGSLRLSCAASGRTFTINTLGWYRQAAGKERELVAAIVGDGTTNYADSVKGLFTISGDNAKNTVDLQMNSLKPEDTAVYYCAADAGYLYDWPYNSYYWGQGTQLTVSS | low polyreactivity
QVQLVESGGGLVQAGGSLRLSCAASGSIFWVYAMGWYRQAPGKERELVAAISNRGGSTYYSDSVKGRFTISRDNAKITVYLQMNSLKPEDTAVYYCAAVVAHHYYWGQGTQVTVSS | high polyreactivity
QVQLVESGGGLVQAGGSLRLSCAASGRTFTYNTMGWYRQETGKQRELVAAISSSGGSTYYADSVKGRFTISRDNAKNTVYLQMNSLKPEDTAVYYCAKRYFSSSRYYYWGQGTQVTVSS | high polyreactivity
QVQLVESGGGLVQAGGSLRLICAASGFTFTDYAMGWYRQAPGKERELVAVIDSGGSTYYADSVKGRFTISRDNAKNTVYLQMNSLKPEDTAVYYCAAYNGTAPSEDYLGQGTQVTVSS | low polyreactivity
QVQLVESGGGLVQAGGSLRLSCAASGSIFSNYAMGWYRQAPGKERELVAAITLSSGGTYYADSVKGRFTISRDNAKNTVYFQMNSLKPEDTAVYYCAAQYKYFIHRYYYWGQGTQVTVSS | high polyreactivity
QVQLVESGGGLVQAGGSLRLSCAASGRIYRINALGWYRQAPGKERELVATITSGGGSTYADSVKGRFTISRDNAKNTVYLQMNSLKPEDTAVYFCAARSRIGRYTYDYWGQGTQVTVSS | high polyreactivity
QVQLVESGGGLVQAGGSLRLSCAASGSILGDYAMGWDRQAPGKEREFVAAIDGSDGSTYYADSVKGRFTISRDNAKNTVYLQMNILKPEDTEVYYCAATDYDTYRSSWYVYWGQCTQVTVSS | low polyreactivity
QVQLVESGGGLVQAGGSLRLSCAASGFTFSFYAMGWYRQAPGKERELVAVISRSGGGTYYADSVKGRFTISRDNAKHTVYLQMNSLKPEDTAVYYCAARLGNRRYDYWGQGTQVTVSS | high polyreactivity
QVQLVESGGGLVQAGCSLRLSCAASGSIFDSKAMGWYRQAPGKERELVAAISSSGARTYYADSVKGRFTISRDNAKNTVYLQMNSLKPEDTAVYYCAAKPGYKSKMDYWGQGTQVTVSS | high polyreactivity
QVQLVESGGGLVQAGGSLRLSCAASGLTFYYYAMGWYRQSPGKEREFVAAISRSGGTTYYADSVKGRFTISRDNAKNTVYLQMNSLKPEDTAVYYCAKASRYWSLYYWGQGTQVTVSS | high polyreactivity
QVQLVESGGGLVQAGGSLRLSCAASGRTFFLYAMGWYRQAPGKEREFVATISYGGGSTYYADSVKGRFTISRDNAKNTVYLQMNSLKPEDTAVYYCNALNTSQYAEGTSDYDGNMGYWGQGTQVTVSS | low polyreactivity
QVQHEESGRGLVQAGGSLRLSCAASGINCVYYAMGCYRQAPGKERELVAAISKNGGSTYYADSVKGRFTISRDNAYNTVYLQMNSLKPEDTAVYYCAAEEGYRWVRYNYWGQGTQVTVSS | high polyreactivity
QVQLVESGGGLVQAGGRLRLSCAASGSTFAGNAMGWYRQAPGKERELVAAIDSSTGSTYYADSVKGRFTISRDNAKNTVYLQMNSLKAEDTAVYYCNKTSFLVKLDYWGQGTQVTVSS | low polyreactivity
QVQLVESGGGLVQAGGSLRLSCAASGRIFRKYVMGWYRQAPGKERELVASITTSGDSTYYADSVKGRFTISRDNAKNTVYLQMNSLKPEDTAVYYCAARSYRGRRYDYWGQGTQVTVSS | high polyreactivity
QVQLVESGGGLVQAGRSLRLSCAASGRTFPYNAMGWYRQAPGKESELVAAITSGGTTNYADSVKGRFTISRDNAKSTVYLQFNRLKPEDTAVYYCAADSDASSQFRRDYWGQGSQVTVSS | low polyreactivity
QVQLVVSGGGLVQAGGSLRLSCAASGSIFRFYTMGWYRQAPGKERELVAAISASGGNTYYADSVKGRFTISRDNAKNTVYLQMNSLKPEDTAVYYCARVKFTKYDYWGQGTQVTVSS | high polyreactivity

Sequence | polyreactivity (PSR sort gate)
QVQLVESGGGLVQAGGSLRLSCAASGGIFQLNAMGWYSQAPGKERELVAAISGSGGSTYYADSVKGRFTISRDNAKNTVYLQMNSLKPEDTAVYYCAVRLTITDYDYWGQGTQVTVSS | low polyreactivity
QVHLVDSGGGLVQAGGSLRLTCAASGSSFWAYVMGWYRQAPGKERELVAAISKSGVRTHYADSVKGRFTISRDNAKTTFYLQMNSLKPEDTAVYYFAAVGFGNLDDYWGQGTQVTVSS | high polyreactivity
QVQLVESGGGLVQAGGSLRLSCAASGFTIRSYVMGWYRQAPGKEREFVAAISYRGGGTNYADSVKGRFTISRDNAKNTVYLQMNSLKPEDTAVYYCNARSGSSKSGYYNWGQGTQVTVSS | high polyreactivity
QVQLVESGGGLVQAGGSLRLSCAASGSPYQQYGMGWYRQAPGKERELVAAITFSDGNTYYADSVTGRFTISRDNAKNTVYLQMNSLKPEDTAVYYCNAGYSYGVSYAEGGYWGQGTQVTVSS | low polyreactivity
QVQLVESGGGLVQAGGSLSLSCAASGRTFSPYAMGWYRQAPGKERELVAAITNGGSTHYADSVKGRFTISRDNAKNTVYLQMNTLKPEYTAVYYCAKSRVLYGYAEYYEMDYWGQGTQVTVSS | low polyreactivity
QVQLVESGGGLVQAGGSLRLSCAASGTIFQENAMGWYRQAPGKERELVAAITGSGDSTYYADSVKGRFTISRDNAKNTVYLQMNSLKPEDTAVYYCAASWHTPTVYDEYYYWGQGTQVTVSS | low polyreactivity
QVQLEESGGGLVQAGGSLRLSCAASGFTFRYYAMGRYRQAPGKVRELVAVISRTGGSTNFADSVKGRFTISRDNAKKTVYLQMNSLKPEDTAVYYCNAVARYQTKYRYEYWGQGTQETVSS | high polyreactivity
QVQLVESGGGLFQAGGSLRLSCAASGTTFAYYTMGWYIQAPGTERELVAAITSGGRTSYADSVKGRFTISRDNAKNTVYLLMNSLKPEDTAFFSCAKCRKPGYYYWGQGNQVTVSS | high polyreactivity
HVQLVESGGGLVQAGGSLRLSCAASGSIFVPNAMGWYRQALGKERELVAAITYSGGDTYYADSVKGRVTISRDNAMNTVYLQMNSLKPEDTAVYYCAADNGRVGYDYWGQGTQVTVSS | low polyreactivity
QVQLVESGGGLVQAGGSLRLSCAASGFIFTEYAMGWYRQAPGKEREFVAAISWSGGSTYYADSVKGRFTISRDNAKNTVYLQMNSLKPEDTAVYYCAKRSRGVKYDYWGQGTQVTVSS | high polyreactivity
QVQLVESGGGLVQAGGSLRLSCAASGRTFEWYAMGWYRPAPGKERELVAVISSGGSTNYADSVKGRFTISRDNAKNTVYLQMNSLIPEDTAVYYCAVLQARDGYWLYLYDYWGQGTQVTVSS | low polyreactivity
QVQLVESGGGLVQAGGSLRLSCAASGSIFRLYAMGWYRQAPGKERELVAAISRRGGSTNYADSVKGRFTISRDNAKNTVYLQMNSLKPEDTAVYYCARDVDTHYPYAYDYWGQGTQVTVSS | high polyreactivity
QVQLVESGGGLVQAGGSLRLSCAASGRILRGNAMGWYRQAPGKEREFFAAIRRSGGTSYYADSVKGRFTISRDNAKNTVYLQMNSLKPEDTAVYYCAATKYQTSGDRGYEHWGQGTQVTVSS | low polyreactivity
QVQLVESGGGLVQAGGSLRLSCAASGRTFYPYAMGWYRKAPVKERDLVAAISWSGGSTRYADSVKGRFTISRDNAKNTVDLQMNSLKPEDTAVYYCNTQYSWYYPADYDYWGQGTQVTVSS | low polyreactivity
QVQLVESGGGLVQAGGSLRLSCSASGRTFGAYAMGWSRQAPGKERELVASISRSGGTTYYADSVKGRFTISRDNAKNTVYLQMNSLKPEDTAVYYCAAQYVRYGHYYWGQGTQVTVSS | high polyreactivity
QVQLVESGGGLVQAGGSLRLSCAASGITFGKYAMGWYRQAPGKERELVAAISWSGGSTYYADSVKGRFTISRDNAKNTVYLQMNSLKPEDTAVYYCAASYPYRRGEFYYYRSSDDDYWGQGTQVTVSS | high polyreactivity
QVQLVESGGGLVQAGGSLRLSCAASGSIFLYYAMGWYRQAPGKERELVAVITSGGITNYADSVKGRFTISRDNAKNTFYLQMNSLKPEDTAVYYCNKEYYITYFDLVYSSLDYWGQGTQVTVSS | low polyreactivity
QVQLVESGGGLVQAGGSLRLSCAASGIIFAQYAMGWYRQAPGKERELVAAISWSGGSTYYADSVKGRFTISRDNAKNTVYLQMNSLKPEDTAVYYCAADGYYGYYSQYEYLYYYWGQGTQVTVSS | high polyreactivity
QVQLVESGGGLVQAGGSLRLSCAASRRIFGFYAMGWYRQAPGKERELVADINWSATSTYYADSVKGRFTISRDTAKNTVYLQMNSLKPEDTAVYYCAADVSYRYYWGQGTQVTVSS | low polyreactivity
QVQLLESGGGLVQAGGSLRLTCGASGITFSVNTMGWYRQAPGKDRELVAAFTSAGGTYYADSVKGRFTISRDTAKNTVYFQMISQKPEDTAVYYCATPYDIQWASESHDYWGQGTQVTVSS | low polyreactivity
